According to the Immune Epitope Database (IEDB):
One block for each sequence: values may come before it.

How the values were obtained:
[1] = target: HLA-A*02:01; assay: IEDB peptide-MHC binding, purified MHC/competitive/radioactivity; filed as Kd, often an IC50 or EC50 that approximates it; ≥ and ≤ were set here for values at or beyond the usual limits of such assays
[2] = target: HLA-A*68:02; assay: as above
[3] = target: HLA-B*15:01; assay: as above
[4] = target: HLA-A*02:02; assay: as above
[5] = target: HLA-A*02:03; assay: as above
[6] = target: HLA-A*02:06; assay: as above
[7] = target: HLA-A*26:01; assay: as above
[8] = target: HLA-A*30:01; assay: as above
[9] = target: HLA-A*01:01; assay: as above
[10] = target: HLA-A*30:02; assay: as above
[11] = target: HLA-A*03:01; assay: as above
[12] = target: HLA-A*11:01; assay: as above
[13] = target: HLA-A*31:01; assay: as above
[14] = target: HLA-A*32:01; assay: as above
[15] = target: HLA-A*68:01; assay: as above
[16] = target: HLA-A*26:01; assay: IEDB peptide-MHC binding, purified MHC/competitive/fluorescence; filed as Kd, often an IC50 or EC50 that approximates it; ≥ and ≤ were set here for values at or beyond the usual limits of such assays
[17] = target: HLA-A*24:02; assay: IEDB peptide-MHC binding, purified MHC/competitive/fluorescence; ≥ and ≤ were set here for values at or beyond the usual limits of such assays
[18] = target: HLA-B*07:02; assay: IEDB peptide-MHC binding, purified MHC/competitive/radioactivity; filed as Kd, often an IC50 or EC50 that approximates it; ≥ and ≤ were set here for values at or beyond the usual limits of such assays
[19] = target: HLA-B*35:01; assay: as above
[20] = target: HLA-B*53:01; assay: as above
[21] = target: HLA-B*51:01; assay: as above; conditions: source organism: Dengue virus 2 Jamaica/1409/1983
[22] = target: HLA-B*15:01; assay: IEDB peptide-MHC binding, purified MHC/competitive/fluorescence; filed as Kd, often an IC50 or EC50 that approximates it; ≥ and ≤ were set here for values at or beyond the usual limits of such assays
[23] = target: HLA-A*29:02; assay: IEDB peptide-MHC binding, purified MHC/competitive/radioactivity; filed as Kd, often an IC50 or EC50 that approximates it; ≥ and ≤ were set here for values at or beyond the usual limits of such assays
[24] = target: HLA-A*02:01; assay: IEDB peptide-MHC binding, purified MHC/competitive/fluorescence; ≥ and ≤ were set here for values at or beyond the usual limits of such assays
[25] = target: HLA-B*48:01; assay: IEDB peptide-MHC binding, purified MHC/direct/fluorescence; filed as Kd, often an IC50 or EC50 that approximates it; ≥ and ≤ were set here for values at or beyond the usual limits of such assays
[26] = target: HLA-A*23:01; assay: IEDB peptide-MHC binding, purified MHC/competitive/radioactivity; filed as Kd, often an IC50 or EC50 that approximates it; ≥ and ≤ were set here for values at or beyond the usual limits of such assays
[27] = target: HLA-A*24:02; assay: as above
[28] = target: HLA-B*18:01; assay: IEDB peptide-MHC binding, purified MHC/direct/fluorescence; filed as Kd, often an IC50 or EC50 that approximates it; ≥ and ≤ were set here for values at or beyond the usual limits of such assays; conditions: source organism: Salmonella enterica
[29] = target: HLA-B*40:01; assay: as above; conditions: source organism: Salmonella enterica
[30] = target: HLA-A*26:01; assay: as above
[31] = target: HLA-B*08:01; assay: IEDB peptide-MHC binding, purified MHC/competitive/radioactivity; filed as Kd, often an IC50 or EC50 that approximates it; ≥ and ≤ were set here for values at or beyond the usual limits of such assays; conditions: source organism: Dengue virus 1 Nauru/West Pac/1974
[32] = target: HLA-A*33:01; assay: as above; conditions: source organism: Vaccinia virus WR
[33] = source organism: Vaccinia virus WR
[34] = source organism: Trypanosoma cruzi
[35] = source organism: Dengue virus 3 Sri Lanka/1266/2000
[36] = source organism: Dengue virus 3 Martinique/1243/1999
[37] = source organism: Dengue virus 4 Philippines/H241/1956
[38] = source organism: Sudan ebolavirus
[39] = source organism: Dengue virus 2 Jamaica/1409/1983
[40] = source organism: Bacillus anthracis str. A0488
[41] = source organism: Lymphocytic choriomeningitis virus (strain Armstrong)
[42] = source organism: Dengue virus 1 Brazil/97-11/1997
[43] = source organism: Mammarenavirus brazilense
[44] = source organism: Mammarenavirus juninense
[45] = source organism: Hepacivirus hominis
[46] = source organism: Dengue virus 1 Nauru/West Pac/1974
[47] = source organism: Lassa virus Josiah
[48] = source organism: Zaire ebolavirus

Kd ([1]; source organism: Homo sapiens): 12200 nM | Kd ([2]; source organism: Homo sapiens): ≥ 63800 nM
Sequence: ALALEEKRRL

Sequence: MLRVYNNTA
Kd [3, 33]: 188 nM

Sequence: GLLPSLLLLG
Kd [1, 34]: 120 nM | Kd [4, 34]: 261 nM | Kd [5, 34]: 137 nM | Kd [6, 34]: 127 nM | Kd [2, 34]: 3750 nM

Sequence: TVAAMGVPPL
Kd [7, 35]: 12200 nM | Kd [8, 35]: 3210 nM | Kd [2, 35]: 19.8 nM

Sequence: EIAKYGHSF
Kd [3, 33]: 57.6 nM

Sequence: FAISYCRAF
Kd [3, 33]: 76.1 nM

Sequence: ISKIPGGAMY
Kd [9, 36]: ≥ 23800 nM | Kd [10, 36]: 9.35 nM | Kd [3, 36]: 136 nM

Sequence: KTFDTEYPK
Kd [11, 37]: 26.1 nM | Kd [12, 37]: 126 nM | Kd [8, 37]: 80 nM | Kd [13, 37]: 29.8 nM | Kd [14, 37]: 2800 nM | Kd [15, 37]: 104 nM

Sequence: SIIGILHLI
Kd ([16]; source organism: Influenza A virus (A/Memphis/1/1978(H1N1))): 13000 nM

Sequence: GAQHSTTLF
IC50 [17, 38]: 42100 nM

Sequence: TPEGIIPTLF
Kd [18, 37]: 920 nM | Kd [19, 37]: 93.5 nM | Kd [20, 37]: 38.1 nM

Sequence: FPQSNAPIM
Kd [18, 39]: 12.1 nM | Kd [19, 39]: 13600 nM | Kd [21]: 632 nM | Kd [20, 39]: 1.8 nM

Sequence: LPEYGTLGL
Kd [18, 36]: 40.1 nM | Kd [20, 36]: 545 nM

Sequence: VLNGAPYSY
Kd [22, 40]: 53.6 nM

Sequence: KTGESSRCY
Kd [9, 41]: 7280 nM | Kd [7, 41]: ≥ 77900 nM | Kd [23, 41]: 4380 nM | Kd [8, 41]: 3520 nM | Kd [10, 41]: 101 nM | Kd [14, 41]: ≥ 77800 nM

Sequence: MSIVCIVAA
Kd [3, 33]: 3070 nM

Sequence: LLFILFYFA
Kd [3, 33]: 242 nM

Sequence: LQIFSNSVG
Kd [3, 33]: 2.07 nM

Sequence: TTQALQLFL
IC50 [24, 38]: 10600 nM | IC50 [17, 38]: 6610 nM

Sequence: AEFNEDGLL
Kd ([25]; source organism: Listeria monocytogenes serotype 4b str. H7858): ≥ 20000 nM

Sequence: KQERGKSLLF
Kd [3, 42]: 118 nM

Sequence: TADDITMGY
Kd [9, 43]: 18.8 nM | Kd [7, 43]: 4700 nM | Kd [23, 43]: 11300 nM | Kd [8, 43]: ≥ 78100 nM | Kd [10, 43]: 9930 nM | Kd [14, 43]: ≥ 77800 nM

Sequence: LTYFCFVAL
Kd [14, 33]: 615 nM | Kd [3, 33]: 28.5 nM

Sequence: MMCYFLTATP
Kd [1, 33]: 18 nM

Sequence: EDAMPGVLSY
Kd [9, 44]: 10600 nM | Kd [26, 44]: 16400 nM | Kd [27, 44]: ≥ 46400 nM | Kd [7, 44]: 1810 nM | Kd [23, 44]: 11100 nM | Kd [8, 44]: ≥ 70400 nM | Kd [10, 44]: 15500 nM | Kd [14, 44]: ≥ 69900 nM

Sequence: YPVWLTKHL
Kd [28]: 2150 nM | Kd [29]: 2930 nM

Sequence: TPTGTVMDII
Kd [18, 36]: 219 nM

Sequence: ESFDLAGLF
Kd [30, 44]: 1.3 nM

Sequence: KYYIKNIGN
IC50 ([17]; source organism: Vaccinia virus): ≥ 101000 nM

Sequence: LSRNSTHEM
Kd [8, 36]: 106 nM | Kd [3, 36]: 39.7 nM

Sequence: KLSGLGFNAV
Kd [1, 45]: 19.3 nM | Kd [4, 45]: 5.4 nM | Kd [5, 45]: 2.8 nM | Kd [6, 45]: 24.5 nM | Kd [2, 45]: 6110 nM

Sequence: RARNRVSTV
Kd [8, 46]: 23 nM | Kd [18, 46]: 2.62 nM | Kd [31]: 9.01 nM

Sequence: GLITCKAFG
IC50 [24, 33]: 60500 nM | IC50 [17, 33]: ≥ 168000 nM

Sequence: VMTKWCAPF
Kd [3, 33]: 1.86 nM

Sequence: LYLVDYGLV
IC50 [24, 33]: ≥ 89800 nM | IC50 [17, 33]: 212 nM

Sequence: RLLGTFTWT
Kd [1, 47]: 33.8 nM | Kd [4, 47]: 323 nM | Kd [5, 47]: 104 nM | Kd [6, 47]: 137 nM | Kd [2, 47]: ≥ 5000 nM

Sequence: EGVVAFLIL
IC50 [17, 48]: ≥ 80300 nM

Sequence: LTVVPLMAF
Kd ([22]; source organism: Bacillus cereus G9241): 147 nM

Sequence: DSEEYHLLY
Kd [9, 41]: 2.78 nM | Kd [7, 41]: 14400 nM | Kd [23, 41]: 289 nM | Kd [8, 41]: 11300 nM | Kd [10, 41]: 3750 nM | Kd [14, 41]: ≥ 77800 nM

Sequence: LAMTDTTPF
Kd [3, 37]: 3.92 nM | Kd [19, 37]: 1.67 nM | Kd [20, 37]: 94.3 nM

Sequence: KLFMALVAF
Kd [26, 39]: 4740 nM | Kd [14, 39]: 37.8 nM | Kd [3, 39]: 198 nM

Sequence: SMRKTDWLPM
Kd [3, 36]: 134 nM

Sequence: MMLKLLTDF
Kd [26, 46]: 357 nM | Kd [14, 46]: 56.7 nM | Kd [3, 46]: 11.5 nM

Sequence: NTARLMAGA
Kd ([30]; source organism: Mycobacterium tuberculosis): ≥ 20000 nM

Sequence: AYQGDYKLF
IC50 [17, 48]: 540 nM

Sequence: GMNEVTKAL
Kd ([25]; source organism: Giardia lamblia ATCC 50803): 359 nM

Sequence: QPATLRKYCI
Kd [18, 39]: 660 nM | Kd [21]: ≥ 26100 nM

Sequence: LKVFLPNPA
IC50 ([17]; source organism: Variola virus): 20300 nM

Sequence: QAVNNLVEL
Kd [1, 47]: 4570 nM

Sequence: LARRPTPKK
Kd [11, 33]: 185 nM | Kd [12, 33]: 431 nM | Kd ([8]; source organism: Vaccinia virus Copenhagen): 10.4 nM | Kd [13, 33]: 70.4 nM | Kd [32]: 19300 nM | Kd [15, 33]: 430 nM

Sequence: HIVYAVPLM
Kd [16, 40]: 8.2 nM

Sequence: FSAWISHRP
IC50 ([24]; source organism: Variola virus): 38100 nM | IC50 ([17]; source organism: Variola virus): 517 nM

Sequence: LVKRFSTGLF
Kd [3, 37]: 256 nM

Sequence: APSTGSASSM
Kd [18, 37]: 19.3 nM | Kd [19, 37]: 377 nM

Sequence: SLFIESSICL
Kd [1, 33]: 2 nM | Kd [4, 33]: 99.2 nM | Kd [5, 33]: 293 nM | Kd [6, 33]: 982 nM

Sequence: QARFSGLLI
IC50 [17, 48]: 16700 nM

Sequence: IYTSGKRSN
IC50 [17, 48]: 6370 nM

Sequence: VLTGGVTLFF
Kd [27, 42]: 1610 nM | Kd [3, 42]: 194 nM

Sequence: TPKAKRGTAQ
Kd ([18]; source organism: Dengue virus 1 Singapore/S275/1990): 1410 nM
